Values quoted from earlier work in patent US6329011A, “Antimicrobial agent against acid-resistant and heat-resistant bacteria” (Director General of Shikoku National Agricultural …, priority 2000, dated 2001).

Legend:
guinea pigs = conditions: one oral administration, 103 to 229 mg/kg body weight, observation for 7 days
[1] = heated under acidic conditions at 100° C. for 10 min.

Substance: thionin
- degradation by digestive enzymes such as trypsin (trypsin): degraded rapidly
- abnormalities after oral administration (guinea pigs): did not result in detection of any abnormalities
- antimicrobial activity after heating [1]: does not lose antimicrobial activity
